The source of these data is publication PMC6093203 (Journal of the American Chemical Society, 2018).

In this experiment the target is non-phosphorylated PTEN (n-PTEN). Nature of the experiment: fluorescence polarisation.

B1: F-HECT-WWP2 (domain or fragment)
chain: KPYDLRRRLYIIMRGEEGLDYGGIAREWFFLLSHEVLNPMYCLFEYAGKNNYCLQINPASSINPDHLTYFRFIGRFIAMALYHGKFIDTGFTLPFYKRMLNKRPTLKDLESIDPEFYNSIVWIKENNLEECGLELYFIQDMEILGKVTTHELKEGGESIRVTEENKEEYIMLLTDWRFTRGVEEQTKAFLDGFNEVAPLEWLRYFDEKELELMLCGMQEIDMSDWQKSTIYRHYTKNSKQIQWFWQVVKEMDNEKRIRLLQFVTGTCRLPVGGFAELIGSNGPQKFCIDKVGKETWLPRSHTCFNRLDLPPYKSYEQLREKLLYAIEETEGFGQE
modifications: fluorescein on the N-terminal Cys
The molecule B1 registered an equilibrium dissociation constant (Kd) of 120 µM.
